# Test: yeast display, Sf9 membrane polyspecificity reagent, FACS + sequencing; frameworks hold sequencing errors
# How it was run: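 Synthetic nanobody libraries on Saccharomyces cerevisiae BJ5465 were galactose-induced for 36–48 hours, stained 1 hour at 4 °C with 10% biotinylated, detergent-solubilized Sf9 membrane reagent and enriched on streptavidin microbeads. FACS then separated cells into low and high (top ~1%) gates by anti-HA (expression) and streptavidin (reagent binding) fluorescence. Genes were colony-PCR amplified, MiSeq 2 × 250 sequenced and CDR-length filtered. A clone's polyreactivity label is that of its gate of origin.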
row,Sequence,polyreactivity (PSR sort gate)
1,QVQLVESGGGLVQAGGSLRLSCAASGSTFLGNAMGWYRQAPGKERELVASIRWTTGSTYYADSVKGRFTISRDNAKNTVYLQMNSLKPEDTAVYYCAKGLYVQFDYWGLGTQVTVSS,low polyreactivity
2,QVQLVESGGGLVQAGGSLRLSCAASGSTFLGYAMGWYRQAPGKERELVAAITYSAGSTYYADSVKGRFTISRDNAKNTVYLQMNSLKPEDTAVYYSAKRYSGYDHWGQGTQVTVSS,low polyreactivity
3,QVQLVESGGGLVQAGGSLRLSCAASGSTFLGYAMGWYRQAPGKERELVAVIDNGGDTYYADSVKGRFTISRDNAKNTVYLQINSLKPEDTEVYYCAADLSYLGYWEYDYWGQGTQVTVSS,low polyreactivity
4,QVQLVESGGGLVQAGGSLRLSCAASGSTFLKNAMGWYRQAPGKERELVAAISYSTTRTYYADSVKGRFTISRDNAKNTVYLQMNSLKPEDTAVYSCNARWQEPLKYDYWGQGTQVTVSS,low polyreactivity
5,QVQLVESGGGLVQAGGSLRLSCAASGSTFLKNAMGWYRQAPGKERELVAAISYSTTRTYYADSVKGRFTISRDNAKNTVYLQMNSLKPEDTAVYYCNKASYWGSGFDYWGQGTQVTVSS,low polyreactivity
6,QVQLVESGGGLVQAGGSLRLSCAASGSTFLNYAMGWYRQAPGKERELVAAISFSGGRTYYADSVKGRFTISRDNAKNTVYLQMNSLKPEDTAVYYCAAGGWRGHYYWGQGTQVTVSS,high polyreactivity
7,QVQLVESGGGLVQAGGSLRLSCAASGSTFLNYAMGWYRQAPWKERELVAAISGRGGRTYYADSVKGRFTISRDNATNTVYLQMNSLKPEDTAVYYCANKRRGGYLYRQELDYWGQGTQVTVSS,high polyreactivity
8,QVQLVESGGGLVQAGGSLRLSCAASGSTFLPNAMGWYRQAPGTERELVATITFDGGSTYYADSVKGRFTISRDNAKNTVYLQMNSLKPEDTAVYYCNTVELYWRGYDYWGQGTQVTVSS,high polyreactivity
9,QVQLVESGGGLVQAGGSLRLSCAASGSTFLQNAMGWYRQAPGKEREFVAAISYTGANTYYADSVKGRFTISRDNAKNTVYLQMNSLKPEDTAVYYCNRYAKQYLSGTVPVNLDYWGQGTQVTVSS,high polyreactivity
10,QVQLVESGGGLVQAGGSLRLSCAASGSTFLRYAMGWYRQAPGKERELVAAINWSGGGTSYADSVKWRFTISRDNAKNTVYLQMNSLKPEDTEGYSCAAYFRYSYYWSEYWGQGTQVTVSS,high polyreactivity
11,QVQLVESGGGLVQAGGSLRLSCAASGSTFLRYAMGWYRQAPGKERELVAAISLSGGRTHYADSVKGRFTISRDNAKNTVYLQMNSLKPEDTAVYYCAARNTGPVQYYYWGQGTQVTVSS,low polyreactivity
12,QVQLVESGGGLVQAGGSLRLSCAASGSTFLRYVMGWYRQAPGKERELVAAISRRGGSTYYADSVKGRFTISRDNAKNTVYLQMNSLNPEDTAGYYCARTVGYRTLLESDSCGQGTQVTVSS,high polyreactivity
13,QVQLVESGGGLVQAGGSLRLSCAASGSTFLSNAMGWYRPAPGKERELVAAITTSGTSTFDADSVKGRFTISRDNAKTTVYLQMNSLKPEDTAVYCAKDYLPYLHFVAPSTGDYDYWGQGTQVTVSS,low polyreactivity
14,QVQLVESGGGLVQAGGSLRLSCAASGSTFLSYVMGWYRQAPGKERELVAAINRDGGRTYYADSVKGRFTISRDNAKNTVYLQMNSLKPEDTAVYYCATTSQATSGPRRKLYYYWGQGTQVTVSS,high polyreactivity
15,QVQLVESGGGLVQAGGSLRLSCAASGSTFLVNAMGLYRQAPGKEREFVAAITGNAGSTYYADSVKGRFTISRDNAKITVYLQMNSLIPEDTAVYYCARTRRTPRGYLDFSLREYDYWGQGTQVTVSS,low polyreactivity
16,QVQLVESGGGLVQAGGSLRLSCAASGSTFLVNAMGWYRQAPGKERELVAAITQSGGSTFYADSVKGRFTISRDNEKNTVYLQMNSLKPEDTAVYYWGQGTQVSVSS,low polyreactivity
17,QVQLVESGGGLVQAGGSLRLSCAASGSTFLVNGMGWYRQAPGKERELVAAISSGDGSTYYADSVKGRFTISRDNAKNTVYLQMNSLKPEDTAVYYCAVDCWWTGYDYWGQGTQVTVSS,low polyreactivity
18,QVQLVESGGGLVQAGGSLRLSCAASGSTFLVYAMGWYRQAPGKERELVAVIDNGGDTYYADSVKGRFTISRDNAKNTVYLQMNSLIPEDTEVYYCAADLSYLGYWEYDYWGQGTQVTVSS,low polyreactivity
19,QVQLVESGGGLVQAGGSLRLSCAASGSTFLVYAMGWYRQAPGKERELVAVIRWRDGSTYYADSVKGRFTISRDNAKNTVYLQMNSLKPEDTAVYYCAAVYWGEEYEYWGQGTQVTVSS,low polyreactivity
20,QVQLVESGGGLVQAGGSLRLSCAASGSTFLVYDRGWYRQAPGKERELVAAITWSGGSTYYADSVKGRFTISRDNAKNTVYLQINSLTPEYTAVYYCAAEIHRTYSWEYPYEMYWGQGTQVTVSS,high polyreactivity
21,QVQLVESGGGLVQAGGSLRLSCAASGSTFLYYAMGWYRQAPGKERELVAAIDSGGSTYYADSVKGRFTISRDNAKNTVYLQMNSLKPEDTAVYYCNADFADHWPPNGPGALDYWGQGTQVTVSS,low polyreactivity
22,QVQLVESGGGLVQAGGSLRLSCAASGSTFMDYAMGWYRQAPGKERELVAAISSGGSTNYADSVKGRFTISRDNAKNTVYLQMNSLKPEDTAVYYCNADYYWSRTQEFDYWGQGTQVTVSS,high polyreactivity

row,Sequence,polyreactivity (PSR sort gate)
1,QVQLVESGGGLVQAGGSLRLSCAASGSTFNANTMGWYRQAPGKEREFVAAISWTGASTYYADSVKGRFTISRDNAKNTVYLHMNSLKPEDTAVDYCNADYTVADGPYRDGYDYWGQGTQVTVSS,low polyreactivity
2,QVQLVESGGGLVQAGGSLRLSCAASGSTFNANTMGWYRQAPGKEREFVAAISWTGASTYYADSVKGRFTISRDNAKNTVYLQMNSLKPEDTAVYYCNADYTVADGPYRDGYDYWGQGTQVTVSS,low polyreactivity
3,QVQLVESGGGLVQAGGSLRLSCAASGSTFNAYAMGWYRQAPGKERELVAVISSSGGRTYYADSVKGSFTISRDNAKNTVYLQMNSLKPEDTAVYYCNADVKYRYNHWGQGTQVTLSS,high polyreactivity
4,QVQLVESGGGLVQAGGSLRLSCAASGSTFNAYVMGWYRQAPGKERELVAAITRGGSTNYADSVKGRFTISRDNAKNTVYLQMNSLKPEDTAVYDCAARGPWVIPYDYWGQGTQVTVSS,low polyreactivity
5,QVQLVESGGGLVQAGGSLRLSCAASGSTFNHNAMGWYRQAPGKERELVAAITSGTSTYYADSVKGRFTISRDNAKNTVYLQMNSLKPEDTAVYYCAADSPWGGGYFVLYNYWGQGTQVTVSS,low polyreactivity
6,QVQLVESGGGLVQAGGSLRLSCAASGSTFNIYAMGWYRQAPGKERELVAAITWSTGRTYYADSVKGRFTISRDTAKNTVYLQMNSLKPEDTAVYYCAARSKIRAFGYWGLGTQVTVSS,high polyreactivity
7,QVQLVESGGGLVQAGGSLRLSCAASGSTFNIYTMGWYRQAPGKERELVARITFSGGSTYYADSVKGRFTISRDNAKNTVYLQMNSLKPEDTAVYYCAVRVYRVDHFGYDYWGQGTQVTVSS,high polyreactivity
8,QVQLVESGGGLVQAGGSLRLSCAASGSTFNKYTMGWYRQAPGKERELVAAITSGDSTYYADSVKGRFTISRDNAKNTVYLQMNSLKPEDTAVYYCAADVRYFDPFDWWGSLVLAYDYWGQGTQVTVSS,low polyreactivity
9,QVQLVESGGGLVQAGGSLRLSCAASGSTFNQNAMGWYRQAPGKERELVARITSGGSTYYADSVKGRFTISRDNAKNTVYLQMNSLKPEDTAVYYCAARANPYVLKYYYWGQGTQVTVSS,high polyreactivity
10,QVQLVESGGGLVQAGGSLRLSCAASGSTFNRNTMGWYRQAPGKERELVAAITSSGGRTYYADSVKGRFTISRDNAKNTVFLQVNSLKPEDTAVYYCATVNRVLIAGRFDSWGQGTQVTVSS,high polyreactivity
11,QVQLVESGGGLVQAGGSLRLSCAASGSTFNRYAMGWYIQAPGKERELVAAITRSGTSTYYADSVKGRFTISRDNAKNTVYLQMNSLKPEDTAVYYCAAVRYAVHFSYDYWGQGTQVTVSS,high polyreactivity
12,QVQLVESGGGLVQAGGSLRLSCAASGSTFNRYAMGWYRQAPGKERELVADINSGGRTNYADSVKGRFTISRDNAKNTVYLQMNSLKPEDTAVYFCARRFQYWLSGGQYDYWGQGTQVTVSS,high polyreactivity
13,QVQLVESGGGLVQAGGSLRLSCAASGSTFNSNAMGWYRQAPGKERELVAAISYSGGRTYYADSVKGRFTISRDNAKNTVYLQMNSLKPEDTAVYYCAKSPNHYIHFDYWGQGTQVTVSS,low polyreactivity
14,QVQLVESGGGLVQAGGSLRLSCAASGSTFNSYAMGWNRQAPGKERELVDRILWSGSTYYADSVKGRFTISRDNAKNTVYLQMNSLKPEDTAVYYFAAKRGYHIGDYWGQCTQVTVSS,high polyreactivity
15,QVQLVESGGGLVQAGGSLRLSCAASGSTFNSYAMGWYRQAPWKERELVAAISSTGGNTYYADSVKGRFTISRDNAKNTVYLQMNSLKPEDTAVYYCNARRYGKVVRSRYNYWGQGTQVTVSS,high polyreactivity
16,QVQLVESGGGLVQAGGSLRLSCAASGSTFNTYAMGWYRQAPGKERELVAAITFSVGSTYYADSVKGRFTISRDNAKNTVYLQMNSLKPEDTAVYYCARRGAYTGRYDYWGQGTQVTVSS,high polyreactivity
17,QVQLVESGGGLVQAGGSLRLSCAASGSTFNYYALGGYRQAPGKERELVAAISTSDGSTYYADSVKGRFTISRDNAKITVYVQMNSLKPEDTAVYYCAADSYERFPSYYYWGQGTQVTVSS,low polyreactivity
18,QVQLVESGGGLVQAGGSLRLSCAASGSTFNYYAMGWNRQAPVKERELVATISWSGDSTYADSVKGRFTISRDNAKNTVYLQMHSLKPEDTAVYYCATSGDWWCFRYDYWGQGTQVTVSS,low polyreactivity
19,QVQLVESGGGLVQAGGSLRLSCAASGSTFNYYAMGWYRPAPGKERELVAAICSRSSRTFYADSVKGRFSISRDNEKNTVYLQMNSLKPEDTAVYYCAVKKRAPDGDYWGQGSQVTVSS,high polyreactivity
20,QVQLVESGGGLVQAGGSLRLSCAASGSTFNYYAMGWYRQAPGKERELVAAISSSGGTTYYADSVKGRFTISRDNAKNTVYLQMKSLKPEDTAVYYCATDTPPYWGGSHFDYWGQGTQVTVSS,low polyreactivity
21,QVQLVESGGGLVQAGGSLRLSCAASGSTFNYYAMGWYRQAPGKERELVARISWSGSTYADSVKGRFTISRDNAKNTVYLQMNSLKPEDTAVYYCAAPYVQKSHRGMDYWGQGTQVTVSS,low polyreactivity
